Reference: the RNAGym collection of RNA variant scans (doi:10.7554/elife.80360)

B1: Hammerhead Ribozyme (parent)
chain: ACCGGAUGUGCUUUCCGGUCUGAUGAGUCCGUGAGGACGAAACAG

Variants of: B1
Assay: self-cleavage, relative activity (ratio to wild type); higher = more cleavage; co-transcriptional

| Variant | self-cleavage |
| --- | --- |
| ACCGGAUGUGCGUUCCGGUCUGAUGAGUCCGAGAGGACGAAACAG | 0.696 |
| ACCGGAUGCGCUUUCCGGUCUGAUGAGUCCGUGGGGACGAAACAG | 0.946 |
| ACCGGAUGUGCUUUCCGGUCUGAAGAGUCCGUGAGGACGAUACAG | 0.279 |
| ACCGCAUGUGCUUUCCGGGCUGAUGAGUCCGUGAGGACGAAACAG | 0.281 |
| ACUGGAUGUGCUUUCCGGUCUGAUGAGUCCGUGAGCACGAAACAG | 0.424 |
| ACCGGAUGUGCUUUCCGGUCUAAGGAGUCCGUGAGGACGAAACAG | 0.363 |
| ACCGGAUGUGCUUUCCGGUCUGAUGAGUCUGUGAGGACUAAACAG | 0.365 |
| ACCGGAUGUGCUCUCCGGUCUGAUGAGUCCGGGAGGACGAAACAG | 0.808 |
| ACCGGAUGUGCUUUCCGGUCUGUUGAGUCCGUGAGGACCAAACAG | 0.341 |
| ACCGGAUGUGCUUUCCGGUCUGAUAAGUCCGUGAGGACGAAACAC | 0.447 |
| UCCGGAUGUGCUUUCCGGUCUGAUGAGUCCGUGAGGACGAAACAG | 0.853 |
| ACCGGAUGUGCUUUCCGGUCUGAUUAGACCGUGAGGACGAAACAG | 0.385 |
| ACGGGAUAUGCUUUCCGGUCUGAUGAGUCCGUGAGGACGAAACAG | 0.406 |
| ACCGGAUGUGCUUUCCGGUCUGAUGAGUCCGUGUGGACGAAACAC | 0.533 |
| ACCGGAUGUGCUUUCCGGUCUGAUGAGACCGUGAGGACGAAUCAG | 0.341 |
| ACCAGAUGUGCUUUCCGGUCUCAUGAGUCCGUGAGGACGAAACAG | 0.354 |
| ACCGGAUGUGCUUUCCGGUCUGAUAAGUCCGUGAGGACCAAACAG | 0.305 |
| ACCGGAUGUGCUUUCCGGUCUGAUGAGUCCGUGAGGAGGAAACUG | 0.407 |
| ACCGGAUGUGCUUUUCGGUCUGAUGGGUCCGUGAGGACGAAACAG | 0.313 |

| Variant | self-cleavage |
| --- | --- |
| ACCGGAUGUGCUUUCCGCUCUGAUGAGUCCGUGAGGACGAAACGG | 0.643 |
| ACCGGAUGUGCUUUCCGGUCUGAUGAGGUCGUGAGGACGAAACAG | 0.77 |
| ACCGGAUGUGCUUUCCGGUCUGAUGAGUCGGUGAGGACUAAACAG | 0.337 |
| ACCGGAUGUGCUUUCCGGUCAGAUGAGUCCGUGAGGACGACACAG | 0.437 |
| ACCGGAUGUGCUUGCCGGUCUGAUGAGUCCGUGAGGACGAUACAG | 0.367 |
| GCCGGAUGUGCUUUCCGGUCUGAUGAGUCCGUGGGGACGAAACAG | 1.5 |
| ACCGGAUGUGCUUUCCGGUCUGACUAGUCCGUGAGGACGAAACAG | 0.305 |
| ACCGGAUGUGCUUUCCGGUCUGAUGUGUCCGUAAGGACGAAACAG | 0.961 |
| ACCGGAUGUGCUUACCGGUCUGAUGAGUCCGUGAGGACGAAACCG | 0.414 |
| ACCGGAUGUGCUUUUCGGUCUGAUGAGUCCGUGAGGACGAACCAG | 0.351 |
| ACCGGAUGUGCUUUCCGGUCUGAUGAGUCCGGGAGGACGAGACAG | 0.299 |
| ACCGGAUAUGCUUUCCGGUCUGAUGAGUCCGUGAGGGCGAAACAG | 0.966 |
| ACCGGAUGUGCUUUCCGGUCUGAUGAGUCCCUGAGGACGAUACAG | 0.381 |
| ACCUGAUGUGCUAUCCGGUCUGAUGAGUCCGUGAGGACGAAACAG | 1.14 |
| ACCGGAUGUGCUUUCCCGUCUGAUGAGCCCGUGAGGACGAAACAG | 0.276 |
| ACCGGAUGUGCUUUCCGGUCUGAGGAGUCCGUGAGGAUGAAACAG | 0.656 |
| ACCGGAUGUACUUUCCGGUCAGAUGAGUCCGUGAGGACGAAACAG | 0.588 |
| GCCGGAUGUGCUUUCCGGUCUGAUGAGACCGUGAGGACGAAACAG | 1.26 |
| ACCGGUUGUGCUUUCCGGUCUGAUUAGUCCGUGAGGACGAAACAG | 0.355 |

| Variant | self-cleavage |
| --- | --- |
| ACCGGAUGUGCUUUCCUGUCUGAUGAGUCGGUGAGGACGAAACAG | 0.59 |
| ACCGGAUAUGCGUUCCGGUCUGAUGAGUCCGUGAGGACGAAACAG | 1.25 |
| ACCGGAUGUGCUUUCCGGUCUGAUGAGUCCGUGAGCACGAAACCG | 0.383 |
| ACCGGAUGUGCAUUCCGGUCUGAUGAUUCCGUGAGGACGAAACAG | 0.412 |
| ACCGGAUGUGCUUUCCGGUCUGAUGAGUCCGUGAGGACGAAAGCG | 0.464 |
| GCCGGAUGUGCUUUCCGGUCCGAUGAGUCCGUGAGGACGAAACAG | 0.949 |
| ACCGGAUGUGCUUUCCGGUCCGAUGGGUCCGUGAGGACGAAACAG | 0.295 |
| ACCGGAUGUGCUUUCCGGUCCGAAGAGUCCGUGAGGACGAAACAG | 1.13 |
| UCCGGAUGUGCUUUCCGGUCCGAUGAGUCCGUGAGGACGAAACAG | 0.379 |
| ACCGGAUGUGCUUUCCGGUCUGAUGAGCCCGUGAGGUCGAAACAG | 0.772 |
| ACCCGAUGUGCUUUCCGGUCUGCUGAGUCCGUGAGGACGAAACAG | 0.299 |
| AGCGGAUGUGCUUUCCGGUCUGAUGAGUCCGUGAGCACGAAACAG | 0.336 |
| ACCGGAUGUGCUUUCCGGUUUGAUGAGUCCGUGAGGACGAAAUAG | 0.325 |
| ACCGGAUGUGCUUUCCGGUCUGAUGAAUCCGUUAGGACGAAACAG | 0.976 |
| ACCGGAUGUGCUUUCCGGUCUGAUGACUCCGUGAGGACGAUACAG | 0.333 |
| AAUGGAUGUGCUUUCCGGUCUGAUGAGUCCGUGAGGACGAAACAG | 0.312 |
| ACCGGAUGUGCUUUCCGGUCUGAUGCGUGCGUGAGGACGAAACAG | 0.303 |
| ACCGGAUGUGCUUUCCGGUCUGAUGAGUCCGUGAGGACGAAAUAU | 0.423 |
| AGCGGAUGUGCUUUCCGGUCUGAUGACUCCGUGAGGACGAAACAG | 0.303 |
